The supplement of paper PMC9170038

Test system: MS2 coat protein
Assay: apparent KD of MS2 coat protein; designed switch direction (-1 OFF switch, 1 ON switch): -1; higher = weaker reporter binding
Outline: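 An oligonucleotide input, 200 uM small-molecule ligand, or no input was present during titration of SNAP-549-labelled MS2 coat protein, which was doubled from 0.7 or 1.5 nM to 3 µM. Designed RNA switches had been transcribed on Illumina chips by stalled E. coli RNA polymerase. Apparent KD per design is the median over clusters of curves fitted to normalised cluster fluorescence.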

[1] = Eterna round: R95, input ligand: microRNA oligo, concentration not stated
[2] = input ligand: microRNA oligo, concentration not stated
[3] = Eterna round: R95, input ligand: FMN 200 uM
[4] = Eterna round: R95, input ligand: none

Sequence	apparent KD of MS2 coat protein (input ligand: FMN 200 uM)	apparent KD of MS2 coat protein (input ligand: none)	apparent KD of MS2 coat protein [1]	other results
GUCAUCAAACAUGGGUGUAACAUGAGGAUCACCCAUGUUAUCAAGUUUUUUGCUCGUCUUAUAAUAAGUUUGAUGAC [Antenna 13 - Jieux - Sensor, turn-off variant 1] (Eterna round: R97, puzzle: Sensor, turn-off variant 1)	87.5 nM	97.6 nM	–	–
GUCAUCACACAUGGGAUCAACAUGAGGAUCACCCAUGUUGCCAAGUUUUUUGCACGUCUUAUAAUACGUUUGAUGAG [Mod-Jxe] (Eterna round: R97, puzzle: Sensor, turn-off variant 1)	31.7 nM	29.9 nM	–	–
GUCAUGAUUGUGAGGAUAUUUCAUAGAUAGAUGUUAGAGAAGGUACAUGAGGAUCACCCAUGUGUGAUCAGACA [Brourd's EX4 #74] (Eterna round: R97, puzzle: Brourd's mod of Exclusion 4)	336 nM	478 nM	–	–
GUCCUACAUGAGGAUCACCCAUGUGAGGAUAUGGUUUCGCUGGCCGUAGCCAGUGGAACCAGAAGGCGCAUGAU [Mat - Exclusion 1 - JL Mod - D1] (Eterna round: R97, puzzle: Exclusion 1)	106 nM	25.9 nM	–	–
GUCGCCAGUGUCAGGAUAUGAUGGCCUCGACGCCGUUAGAAGGGACAUGAGGAUCACCCAUGUAACAAGCGACG [Eternabot (Original) Solution 42] (Eterna round: R97, puzzle: Brourd's mod of Exclusion 4)	31.3 nM	27.8 nM	–	–
GUCGCGUGGGUGUGGGAGGACAUGAGGAUCACCCAUGUGACUACCAAGCUUUUUGCUCCUCUUAGGUCCAUGGGAAG [Random] (Eterna round: R97, puzzle: Sensor, turn-off variant 1)	67 nM	109 nM	–	–
GUCGCUAGAGGAUAUACAAUGGUAUAUGAUCCUAGUGACAUACAUGAGGAUCACCCAUGUAGAAGGCUAGUAAU [Exclusion 2 - 7] (puzzle: Exclusion 2)	–	–	24.8 nM	–
GUCGUGCGGCAGUGCUGUACGAGUACAUGAGGAUCACCCAUGUAGGAUAUGGUUCGUUUUGCGUGCUAGAAGGGCGUGCGUUUU [Excl-NG3-LRO18] (Eterna round: R96, puzzle: Exclusion NG 3)	18 nM	24.8 nM	–	apparent KD of MS2 coat protein [2]: 15.8 nM
GUCGUGUUAGGAUAUGCAUGUGGACGAUGUUCUCCGCCGGUGUAGAAGGAACAUGAGGAUCACCCAUGUGCCUA [Eternabot (L1) Solution 79] (Eterna round: R97, puzzle: Exclusion 4)	45.6 nM	52.5 nM	–	–
GUCUACGCAGGAUAUAUCCCUCAGGACAUGAGGAUCACCCAUGUCUCCUUAUGCCUUCCCAUAGAAGGGCGUAGAA [Eternabot (L1) Solution 82] (Eterna round: R97, puzzle: Exclusion 5)	12.6 nM	13.2 nM	–	–
GUCUCGUGAGGAUAUCAUGAUUGACUUAAUUUAUUUUAGCGUGAGAAGGCACAUGAGGAUCACCCAUGUGAUUC [Ex4 - 3 - 5] (puzzle: Exclusion 4)	–	–	17.1 nM	–
GUCUCGUGAGGAUAUGACGCUACUUUUUUGUUUUAGUAGAGUCAGAAGGCACAUGAGGAUCACCCAUGUGAUUC [Ex4 - 3 - 4] (puzzle: Exclusion 4)	–	–	56 nM	–
GUCUGCACGCUGCGGUCCUACAUGAGGAUCACCCAUGUGGUCUGGUGGCGUGGGUCGCCGGACUUGGCUCGUCUUGA [salish99_S_TOV1_R5_045] (Eterna round: R97, puzzle: Sensor, turn-off variant 1)	16.5 nM	15.9 nM	–	–
GUCUGCACGCUGCGGUCCUACAUGAGGAUCACCCAUGUGGUCUGGUGGCGUGGGUCGCCGGACUUGGCUCGUCUUGG [salish99_S_TOV1_R5_048] (Eterna round: R97, puzzle: Sensor, turn-off variant 1)	14.8 nM	14.7 nM	–	–
GUGAAACAUGAGGAUCACCCAUGUGAGGAUAUGAUACUAUGUACUUCGGUACAUAGUAUCAGAAGGCACAGUGA [Ex1-3: 6] (puzzle: Exclusion 1)	–	–	65.4 nM	–
GUGAAACAUGAGGAUCACCCAUGUGAGGAUAUGAUUUAGUAAUGAUGAAAGUAAAUAUUCAGAAGGCACAAUGG [Mat - Mod of JL D71] (puzzle: Exclusion 1)	–	–	92.7 nM	apparent KD of MS2 coat protein [3]: 74.2 nM; apparent KD of MS2 coat protein [4]: 90.2 nM
GUGAAGAAGUUAGUGGCCUACAUGAGGAUCACCCAUGUGAGGGAAAUGUUGAGGCGAAAGUUGUGUGCUCGUCUGUA [JR_SV3TOV1_Sub040] (puzzle: Sensor v3, turn-off variant 1)	–	–	52.1 nM	apparent KD of MS2 coat protein [3]: 27.1 nM; apparent KD of MS2 coat protein [4]: 31.1 nM
GUGACACAUGAGGAUCACCCAUGUGAGGAUAUAUCCGACUAUGAAAGGGUGUAGCAGGAUAGAAGGUACUGGCG [Eternabot (L2) Solution 54] (Eterna round: R97, puzzle: Exclusion 1)	83.1 nM	104 nM	–	–

Sequence	apparent KD of MS2 coat protein (input ligand: FMN 200 uM)	apparent KD of MS2 coat protein (input ligand: none)	apparent KD of MS2 coat protein [1]	other results
GUGACACAUGAGGAUCACCCAUGUGAGGAUAUGAUACUAUGUACUUCGGUACAUAGUAUCAGAAGGCACAGUGA [Ex1-3: 7] (puzzle: Exclusion 1)	–	–	43.2 nM	–
GUGAGCAGACGGAGAUCCAACAUGAGGAUCACCCAUGUCUCAUAAGCUUUUUGCUCAUCUUAUUGUACCUUGGUGCU [Mat - Sensor v3 - turn-off var 1 - JL Mod - D20] (puzzle: Sensor v3, turn-off variant 1)	–	–	8.27 nM	apparent KD of MS2 coat protein [3]: 291 nM; apparent KD of MS2 coat protein [4]: 253 nM
GUGCUACAUGAGGAUCACCCAUGUCAGGAUAUGCGAAUUUCAUCAAAAGAUGAAAUUUGCAGAAGGGACAACAC [Omei Ex1 A18] (Eterna round: R97, puzzle: Exclusion 1)	88.2 nM	38.5 nM	–	–
GUGCUAUGAGGAUAUACGUUGGUGGGCAUCUGUGUGCUCCUACAUGAGGAUCACCCAUGUAGAAGGCAUGUCAC [LRO-Excl2-20] (Eterna round: R96, puzzle: Exclusion 2)	22.9 nM	14.1 nM	–	apparent KD of MS2 coat protein [2]: 9.33 nM
GUGCUAUGAGGAUAUACGUUGGUGGGCAUCUGUGUGCUCCUACAUGAGGAUCACCCAUGUAGAAGGCAUGUCAC [LRO-Excl2-20] (puzzle: Exclusion 2)	–	–	11.9 nM	–
GUGGAACAUGAGGAUCACCCAUGUGAGGAUAUGUGAGAAGGAUUUGAGAUGGAGAGGGACAGAAGGCACUAGGA [JR_Exclu1_Sub083] (puzzle: Exclusion 1)	–	–	39.4 nM	apparent KD of MS2 coat protein [3]: 36.3 nM; apparent KD of MS2 coat protein [4]: 55.8 nM
GUGGAACAUGAGGAUCACCCAUGUGAGGAUAUGUGUGAAUAGAGGAGAAGAAGAGAGAACAGAAGGCACGGAGG [JR_Exclu1_Sub066] (puzzle: Exclusion 1)	–	–	73.4 nM	apparent KD of MS2 coat protein [3]: 53.3 nM; apparent KD of MS2 coat protein [4]: 93.3 nM
GUGGUACAUGAGGAUCACCCAUGUAAGGAUAUAGUCGUCUGGUGGUCGCGGGUGGUGGCUAGAAGGUGCGUGCG [-19.6, -16.8 kcal, A 19%] (Eterna round: R97, puzzle: Exclusion 1)	93.9 nM	125 nM	–	–
GUGGUACAUGAGGAUCACCCAUGUCAGGAUAUCGUGUGUUUUUUUUCGGCCGCGCGUGCGAGAAGGGACGUCUU (puzzle: Exclusion 1)	–	–	17.3 nM	–
GUGGUACAUGAGGAUCACCCAUGUGAGGAUAUAGUCGGCUGGUGGUCGCGGGUGGUGGCUAGAAGGUGCGUGCG [-19.3, -16.9 kcal, A 18%] (Eterna round: R97, puzzle: Exclusion 1)	171 nM	179 nM	–	–
GUGUACAGAGGAUAUAUAUGAGCAUGGAAACAUGCAAGAUCACAUGAGGAUCACCCAUGUAGAAGGCUGUACAC [Ex2: 736] (Eterna round: R96, puzzle: Exclusion 2)	861 nM	112 nM	–	apparent KD of MS2 coat protein [2]: 99.3 nM
GUGUACAGAGGAUAUGCACGAGUAGUUACGAAAGUAACUACACAUGAGGAUCACCCAUGUAGAAGGCUGUACAC [Dot plot directed v1] (puzzle: Exclusion 2)	–	–	13.3 nM	–
GUGUACGCAGGAUAUACAUGAGGAUCACCCAUGUGAAUAAGAUAGAAUAAGAUAAAGUGUAGAAGGGCGAGUGU [Excluse me!!! 5 - Jieux - Exclusion 3] (puzzle: Exclusion 3)	–	–	28.3 nM	–
GUGUACGGAGGAUAUGCUGGAAUCUAGCGAAGCUAGGUUCCACAUGAGGAUCACCCAUGUAGAAGGCUGUACAC [Dot plot directed A v5] (puzzle: Exclusion 2)	–	–	21.1 nM	–
GUGUAGAUAGGAUAUGCUUUGAGCUUAUGAGAGUAUGCUCGACAUGAGGAUCACCCAUGUAGAAGGGUUUACAC [LRO-Excl2-04] (puzzle: Exclusion 2)	–	–	68.5 nM	–
GUGUAGGGAGGAUAUACAUGAGGAUCACCCAUGUGAAUAAGAUAGAAUAAGAUAAAGUGUAGAAGGCUUAGUGU [Excluse me!!! 24 - Jieux - Exclusion 3] (puzzle: Exclusion 3)	–	–	53 nM	apparent KD of MS2 coat protein [3]: 49.6 nM; apparent KD of MS2 coat protein [4]: 67.9 nM
GUGUCACAUGAGGAUCACCCAUGUGAGGAUAUCAUGCUUCGUAGUAAACUACGAAGUGUGAGAAGGCACAUGAC [Omei Ex1 E1] (Eterna round: R97, puzzle: Exclusion 1)	71 nM	47.8 nM	–	–
GUGUGAAGUUAGGAUAUGAUCGGACAAGAGCCUUCAGAAGGGACCACAUGAGGAUCACCCAUGUUGUCGGUGGC [Eternabot (L1) Solution 41] (Eterna round: R97, puzzle: Exclusion 6)	20.5 nM	18.6 nM	–	–
